Assay results taken from patent publication US20260116991A1 (HAINAN SIMCERE ZAIMING PHARMACEUTICAL, published 2026).
Changes are numbered by the printed parent chain. Each block holds one binder with its values, some of them ahead of it.

Columns and labels:
[1] = molecular target: T1, monkey GPC3 on HEK293T-monkey GPC3 cells (monkey); experiment: FACS on HEK293T-monkey GPC3 cells;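 also: flow cytometry binding of test antibodies to the cells, read as mean fluorescence intensity, with half-maximal concentration taken from fitted curves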
T1 construct: whole, on cells

monkey GPC3-His protein [2] = molecular target: T2, monkey GPC3-His protein (monkey); experiment: ELISA, monkey GPC3-His coated;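 also: Plate-coated antigen at 1 µg/mL, antibody binding 2 h at 37 °C, detected with HRP-labeled secondary antibody and TMB, absorbance at 450 nm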
T2 construct: Bought recombinant protein; also called monkey GPC3 protein

monkey GPC3-His protein [3] = molecular target: T2, monkey GPC3-His protein; experiment: SPR, antibody captured on Protein A chip, monkey GPC3-His analyte;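 also: run at 25 °C with 240 s association and up to 600 s dissociation, double-referenced, kinetics fitted to a 1:1 Langmuir binding model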
Protocol: The flow cell was set at 25° C. The sample block was set at 16° C. Both were pretreated with the running buffer. In each cycle, first, the antibody to be tested was captured using the Protein A chip, and then a single concentration of GPC3 antigen protein was injected. […] The association was determined by injecting different concentrations of human GPC3-His in the solution and maintaining for 240 s, wherein the flow rate was 30 μL/min, and the protein was diluted at a 1:1 dilution ratio from 200 nM to obtain 5 concentrations in total. The dissociation phase was monitored for up to 600 s and triggered by switching from the sample solution to the running buffer. The surface was regenerated by washing with 10 mM glycine solution (pH 1.5) at a flow rate of 30 μL/min for 30 s. The difference in bulk refractive index was corrected by subtracting the responses obtained from the goat anti-human Fc surface. Blank injections (double reference) were also subtracted. To calculate the apparent KD and other kinetic parameters, the Langmuir 1:1 model was used.

human GPC3-His protein = molecular target: T3, human GPC3-His protein (human, UniProt P51654 25-559); experiment: SPR, antibody captured on Protein A chip, human GPC3-His analyte;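 also: measured at 25 °C flow cell, human GPC3-His injected at five concentrations up to 200 nM, 240 s association, up to 600 s dissociation, double-referenced, fitted to Langmuir 1:1 model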
T3 construct: also called human GPC3 protein; not shown: His tag

- EC50 [1]: 0.53 nM
- Max MFI [1]: 5880 MFI
- OD450 at 0.0001 nM (monkey GPC3-His protein [2]): 0.05 OD450
- OD450 at 0.001 nM (monkey GPC3-His protein [2]): 0.05 OD450
- OD450 at 0.01 nM (monkey GPC3-His protein [2]): 0.08 OD450
- OD450 at 0.1 nM (monkey GPC3-His protein [2]): 0.43 OD450
- OD450 at 1 nM (monkey GPC3-His protein [2]): 0.62 OD450
- OD450 at 10 nM (monkey GPC3-His protein [2]): 0.32 OD450
- OD450 at 100 nM (monkey GPC3-His protein [2]): 0.55 OD450
- Kd (monkey GPC3-His protein [3]): 3.4 nM
- koff (monkey GPC3-His protein [3]): 0.000503 s⁻¹
- kon (monkey GPC3-His protein [3]): 148000 M⁻¹ s⁻¹
- Kd (human GPC3-His protein): 5.88 nM
- koff (human GPC3-His protein): 0.000493 s⁻¹
- kon (human GPC3-His protein): 83900 M⁻¹ s⁻¹
B1: F1.83.6 (antibody, human IgG1, kappa, V domains shown)
VH: QVQLQQSGPELVKPGASVKISCKASGYAFSSSWMNWVKQRPGKGLEWIGRIYPGDGDTNYNGRFKGKATLTVDKSSSTAYMQLSSLTSEDSAVYFCARGGVFTMALDHWGQGTTLTVSS
VL: DIQMTQSPSSLSASLGGKVTITCKASQDINKYIAWYQHKPGKGPRLLIHYTSTLQPGIPSRFSGSGSGRDYSFSISNLEPEDIATYYCLQYDNLFTFGGGTKLEIKR
notes: Human-murine chimeric antibody

- EC50 [1]: 0.42 nM
- Max MFI [1]: 4450 MFI
- OD450 at 0.0001 nM (monkey GPC3-His protein [2]): 0.06 OD450
- OD450 at 0.001 nM (monkey GPC3-His protein [2]): 0.11 OD450
- OD450 at 0.01 nM (monkey GPC3-His protein [2]): 0.53 OD450
- OD450 at 0.1 nM (monkey GPC3-His protein [2]): 1.91 OD450
- OD450 at 1 nM (monkey GPC3-His protein [2]): 2.57 OD450
- OD450 at 10 nM (monkey GPC3-His protein [2]): 2.62 OD450
- OD450 at 100 nM (monkey GPC3-His protein [2]): 2.66 OD450
- Kd (monkey GPC3-His protein [3]): 4.67 nM
- koff (monkey GPC3-His protein [3]): 0.000447 s⁻¹
- kon (monkey GPC3-His protein [3]): 95800 M⁻¹ s⁻¹
- Kd (human GPC3-His protein): 6.75 nM
- koff (human GPC3-His protein): 0.000445 s⁻¹
- kon (human GPC3-His protein): 65800 M⁻¹ s⁻¹
B2: F1.111.11 (antibody, human IgG1, kappa, V domains shown)
VH: EVQLQQSGPELVKPGASVKISCKASGYTFTDYYMNWVKQSHGKSLEWIGDIYPNNGDTTYNQRFKGKATLTVDKSSSTAYMELRSLASEDSAVYYCACPYNNPFGYWGQGTLVTVSA
VL: DVVMTQTPLSLPVSLGDQASISCRSSQSLVHSNGNTYLHWYLQKPGQSPKLLIYKVSNRFSGVPDRFSGSGSGTDFTLKISRVEAEDLGVYFCSQSTHVPWTFGGGTKLEIKR
notes: as for B1

- EC50 [1]: 0.33 nM
- Max MFI [1]: 6390 MFI
- OD450 at 0.0001 nM (monkey GPC3-His protein [2]): 0.05 OD450
- OD450 at 0.001 nM (monkey GPC3-His protein [2]): 0.07 OD450
- OD450 at 0.01 nM (monkey GPC3-His protein [2]): 0.27 OD450
- OD450 at 0.1 nM (monkey GPC3-His protein [2]): 1.33 OD450
- OD450 at 1 nM (monkey GPC3-His protein [2]): 2.14 OD450
- OD450 at 10 nM (monkey GPC3-His protein [2]): 2.36 OD450
- OD450 at 100 nM (monkey GPC3-His protein [2]): 2.26 OD450
- Kd (monkey GPC3-His protein [3]): 1.05 nM
- koff (monkey GPC3-His protein [3]): 0.00145 s⁻¹
- kon (monkey GPC3-His protein [3]): 1.38e+06 M⁻¹ s⁻¹
- Kd (human GPC3-His protein): 1.4 nM
- koff (human GPC3-His protein): 0.00115 s⁻¹
- kon (human GPC3-His protein): 820000 M⁻¹ s⁻¹
B3: F1.115.8 (antibody, human IgG1, kappa, V domains shown)
VH: EVQLQQSGPELVKPGASVKMSCKASGYTFTEYYMHWVKQSHGKSLEWIGYIYPNNGGNGYNQKFKGKATLTVDKSSSTAYMGLRSLTSEDSAVYYCVRGYYSNWYFDVWGTGTTVTVSS
VL: B2 VL with V3L, L29I, N35K, H39E, F92Y, S94F, S96G, T97S, W101F, G105S
notes: as for B1

- EC50 [1]: 2.26 nM
- Max MFI [1]: 5520 MFI
- OD450 at 0.0001 nM (monkey GPC3-His protein [2]): 0.05 OD450
- OD450 at 0.001 nM (monkey GPC3-His protein [2]): 0.05 OD450
- OD450 at 0.01 nM (monkey GPC3-His protein [2]): 0.06 OD450
- OD450 at 0.1 nM (monkey GPC3-His protein [2]): 0.15 OD450
- OD450 at 1 nM (monkey GPC3-His protein [2]): 0.64 OD450
- OD450 at 10 nM (monkey GPC3-His protein [2]): 0.62 OD450
- OD450 at 100 nM (monkey GPC3-His protein [2]): 0.58 OD450
- Kd (monkey GPC3-His protein [3]): 5.07 nM
- koff (monkey GPC3-His protein [3]): 0.000139 s⁻¹
- kon (monkey GPC3-His protein [3]): 27400 M⁻¹ s⁻¹
- Kd (human GPC3-His protein): 7.46 nM
- koff (human GPC3-His protein): 0.00017 s⁻¹
- kon (human GPC3-His protein): 22800 M⁻¹ s⁻¹
B4: F1.92.17 (antibody, human IgG1, kappa, V domains shown)
VH: EVQLQQSGPELVKPGASVKMSCKASGYTFTDYNMHWVRQSHGKSLEWIGYINPNNGDTIYNQNFKGKATLTVNKSSSTAYMELRSLTSEDSAVYYCSRTITYYYSMDYWGPGTSVTVSS
VL: QIVLTQSPALMSASPGEKVTMTCSASSSVSYMYWYQQKPRSSPKPWIYLTSNLASGVPARFSGSGSGTSYSLTISSMEAEDAATYYCQQWSSNPLTFGAGTKLELKR
notes: as for B1

- EC50 [1]: 0.32 nM
- Max MFI [1]: 6220 MFI
- OD450 at 0.0001 nM (monkey GPC3-His protein [2]): 0.05 OD450
- OD450 at 0.001 nM (monkey GPC3-His protein [2]): 0.08 OD450
- OD450 at 0.01 nM (monkey GPC3-His protein [2]): 0.28 OD450
- OD450 at 0.1 nM (monkey GPC3-His protein [2]): 1.43 OD450
- OD450 at 1 nM (monkey GPC3-His protein [2]): 2.21 OD450
- OD450 at 10 nM (monkey GPC3-His protein [2]): 2.32 OD450
- OD450 at 100 nM (monkey GPC3-His protein [2]): 2.14 OD450
- Kd (monkey GPC3-His protein [3]): 0.226 nM
- koff (monkey GPC3-His protein [3]): 0.000102 s⁻¹
- kon (monkey GPC3-His protein [3]): 453000 M⁻¹ s⁻¹
- Kd (human GPC3-His protein): 0.472 nM
- koff (human GPC3-His protein): 0.000118 s⁻¹
- kon (human GPC3-His protein): 251000 M⁻¹ s⁻¹
B5: F1.118.4 (antibody, human IgG1, kappa, V domains shown)
VH: QVQLQQSGAELAKPGASVKLSCKASGYSFTSYWIHWVKQRPGQGLEWIGYINPSSGYTKYNQKFKDKATLTADKSSSTAYMQLSSLTYEDSAVYYCARFGSSSFYFDYWGQGTTLTVSS
VL: DIVLTQSPASLAVSLGQRATISCRASQSVSSSSYSYMHWYQQKPGQPPKLLIKYASNLDSGVPARFSGSGSGTDFTLNIHPVEEEDTATYYCQHSWEIPAFGGGTKLEIKR
notes: as for B1

- EC50 [1]: 0.33 nM
- Max MFI [1]: 6580 MFI
- OD450 at 0.0001 nM (monkey GPC3-His protein [2]): 0.05 OD450
- OD450 at 0.001 nM (monkey GPC3-His protein [2]): 0.06 OD450
- OD450 at 0.01 nM (monkey GPC3-His protein [2]): 0.17 OD450
- OD450 at 0.1 nM (monkey GPC3-His protein [2]): 0.55 OD450
- OD450 at 1 nM (monkey GPC3-His protein [2]): 0.73 OD450
- OD450 at 10 nM (monkey GPC3-His protein [2]): 0.21 OD450
- OD450 at 100 nM (monkey GPC3-His protein [2]): 0.37 OD450
- Kd (monkey GPC3-His protein [3]): 3.26 nM
- koff (monkey GPC3-His protein [3]): 0.000639 s⁻¹
- kon (monkey GPC3-His protein [3]): 196000 M⁻¹ s⁻¹
- Kd (human GPC3-His protein): 7.06 nM
- koff (human GPC3-His protein): 0.00075 s⁻¹
- kon (human GPC3-His protein): 106000 M⁻¹ s⁻¹
B6: F1.78.24 (antibody, human IgG1, kappa, V domains shown)
VH: QVQLQQSGAELVKPGASVKMSCKASGYTFTTYPIEWMKQNHGKSLEWIGNFHPYNDDTNYNVKFKGKATLTVEKSSSTVYLELSRLTSDDSALYYCARRREYYGSFDVWGTGTTVTVSS
VL: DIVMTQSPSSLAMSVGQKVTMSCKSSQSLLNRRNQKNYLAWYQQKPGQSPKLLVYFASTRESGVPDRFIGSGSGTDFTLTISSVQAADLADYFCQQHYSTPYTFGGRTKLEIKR
notes: as for B1
